Results taken from patent US9580487B2, “Method of treating stomach or bowel-related disorders by administering glucagon-like-peptide-2 (GLP-2) analogues” (Zealand Pharma A/S, priority 2005, dated 2017).
Entries after “also recorded” stand apart in the source; their conditions may differ. No end group written: not given here.

What was measured:
[1] = Chemical stability testing: incubation in HCl, NaOH, H2O2 or NH4HCO3 at 40° C., remaining purity by RP-HPLC; type: physicochemical; conditions: for Stability during acid hydrolysis (in words): 0.1 M HCl, 12 days; for Stability during acid hydrolysis (in words) / Purity H2O2 0.5% 3 days / Purity HCl 0.1M 12 days / Purity NH4HCO3 0.1M 6 days: 40° C.; for Purity H2O2 0.5% 3 days / Purity HCl 0.1M 12 days / Purity NH4HCO3 0.1M 6 days: 2 mg/ml, relative to the purity at T=0; for Purity H2O2 0.5% 3 days / Purity HCl 0.1M 12 days: RP-HPLC; for Purity NH4HCO3 0.1M 6 days: pH 8, RP-HPLC
How it was run: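 GLP-2 analogues at 2 mg/ml final were stressed at 40° C in the dark in 0.1 M HCl, 0.01M NaOH, 0.1 M NH4HCO3 or 0.5% H2O2. Remaining intact main peak was measured by RP-HPLC relative to T=0 purity, with degradants identified by LC-MS.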

[2] = test system: male C57BL mice; assay: Dose-response effect on intestinal growth (SI mass, SI-Colon Sensitivity Index, colon and stomach mass); type: in vivo; conditions: 5-405 nmol/kg s.c. b.i.d. for three days
Description: Values are means±SEM. *: P<0.05 relative to the equimolar dose of [Gly2]GLP-2 (SEQ ID NO:54).
FIG. 2 is a set of graphs showing full dose-response data of four small intestine selective compounds (compound nos. 1846 (SEQ ID NO:34), 1855 (SEQ ID NO:43), 1848 (SEQ ID NO:36), 1858 (SEQ ID NO:46)) on the Small Intestine (SI)-to-Colon Sensitivity Index mice relative to the non-selective reference compound [Gly2]GLP-2 (SEQ ID NO:54). Compounds were administered by subcutaneous injection b.i.d. for three days in C57BL mice at the following doses: 0 (vehicle), 5, 15, 45, 135, 405 nmol/kg (n=6/dose group). Responses at each dose level were compared with responses obtained at the same dose level in pair-treated mice treated with the non-selective reference compound [Gly2]GLP-2 (SEQ ID NO:54). The SI-Colon Sensitivity Index was calculated as SI-mass relative to colon mass and the Sensitivity Index at each dose level was normalized to the response observed with the non-selective reference compound [Gly2]GLP-2 (SEQ ID NO:54). […] Values are means±SEM. *: P<0.05 relative to the equimolar dose of [Gly2]GLP-2.
FIG. 4 is a set of graphs showing full dose-response data of three small intestine selective compounds (compound nos. 1857 (SEQ ID NO:45), 1820 (SEQ ID NO:10), and 1849 (SEQ ID NO:37)) on the Small Intestine (SI)-to-Colon Sensitivity Index mice relative to the non-selective reference compound [Gly2]GLP-2 (SEQ ID NO:54). Compounds were administered by subcutaneous injection b.i.d. for three days in C57BL mice at the following doses: 0 (vehicle), 5, 15, 45, 135, 405 nmol/kg (n=6/dose group). Responses at each dose level were compared with responses obtained at the same dose level in pair-treated mice treated with the non-selective reference compound [Gly2]GLP-2 (SEQ ID NO:54). The SI-Colon Sensitivity Index was calculated as SI-mass relative to colon mass and the Sensitivity Index at each dose level was normalized to the response observed with the non-selective reference compound [Gly2]GLP-2 (SEQ ID NO:54). […] Values are means±SEM. *: P<0.05 relative to the equimolar dose of [Gly2]GLP-2 (SEQ ID NO:54).
Compounds were administered by subcutaneous injection b.i.d. for three days in C57BL mice at the following doses: 0 (vehicle), 5, 15, 45, 135, 405 nmol/kg (n=6/dose group). […] Values are means±SEM. *: P<0.05 relative to the vehicle.
The dose-response effect of 1820 (SEQ ID NO:10), 1855 (SEQ ID NO:43), ZP1846 (SEQ ID NO:34), 1858 (SEQ ID NO:46), 1849 (SEQ ID NO:37), 1848 (SEQ ID NO:36), and 1857 (SEQ ID NO:45) on small intestinal mass was determined in male C57BL mice. Individual groups (n=6) of mice were given 5, 15, 45, 135 or 405 nmol/kg of each compound, s.c, twice daily for three consecutive days. For comparison purposes other groups of animals were given either equimolar doses of [Gly2]GLP-2 (SEQ ID NO:54) or vehicle (phosphate buffered saline, pH 7.4) in the same dosing regimen. Twenty-four hours after the last dose of compound had been given the mice were sacrificed and the small intestine (from the pylorus to the cecum emptied and weighed to determine the effect on small intestinal mass.

With “[Gly2, Glu3, Thr5, Ser8, Leu10, Ala11,16,24,28]hGLP-2(1-33)-NH2 [Compound 1855]” the “Stability during acid hydrolysis (in words)” value [1] was “tendency of slightly higher stability”, the “Stability under accelerated oxidation (in words)” value ([1]; 0.5% H2O2, 40° C., 3 days) was “unexplainable low stability” and the “Purity H2O2 0.5% 3 days” value [1] was 14%. The “Purity HCl 0.1M 12 days” value [1] was 85%, the “Purity NH4HCO3 0.1M 6 days” value [1] was 97% and the “SI-Colon Sensitivity Index (SI mass relative to colon mass) relative to [Gly2]GLP-2” value [2] was “increased maximal small intestinal sensitivity relative to [Gly2]GLP-2; also recorded: increased selectivity for causing growth of the small intestine relative to the colon”. The “Small intestinal mass (SI-BW ratio), maximal response relative to [Gly2]GLP-2” value [2] was “maximal responses that were significant greater than [Gly2]GLP-2”.

With “[Gly2, Glu3, Thr5, Ser8, Leu10, Ala11,16,24,28]hGLP-2(1-33)-(Lys)6-NH2 (HGEGTFSSELATILDALAARDFIAWLIATKITDKKKKKK-NH2) [Compound 1848]” the “Purity H2O2 0.5% 3 days” value [1] was 68%, the “Purity HCl 0.1M 12 days” value [1] was 63% and the “Purity NH4HCO3 0.1M 6 days” value [1] was 93%. The “SI-Colon Sensitivity Index (SI mass relative to colon mass) relative to [Gly2]GLP-2” value [2] was “increased maximal small intestinal sensitivity relative to [Gly2]GLP-2; also recorded: increased selectivity for causing growth of the small intestine relative to the colon”, the “Small intestinal mass (SI-BW ratio), maximal response relative to [Gly2]GLP-2” value [2] was “maximal responses that were significant greater than [Gly2]GLP-2” and the “Growth stimulation of small intestine, colon and stomach mass” value ([2]; vs vehicle) was “only produced dose-dependent growth stimulation in the small intestine”.

With “[Gly2, Glu3, Ser8,11, Leu10, Ala16,24,28]hGLP-2(1-33)-(Lys)6-NH2 (HGEGSFSSELSTILDALAARDFIAWLIATKITDKKKKKK-NH2) [Compound 1846]” the “Purity H2O2 0.5% 3 days” value [1] was 64%, the “Purity HCl 0.1M 12 days” value [1] was 70% and the “Purity NH4HCO3 0.1M 6 days” value [1] was 82%. For the same substance, the “SI-Colon Sensitivity Index (SI mass relative to colon mass) relative to [Gly2]GLP-2” value [2] was “increased maximal small intestinal sensitivity relative to [Gly2]GLP-2; also recorded: increased selectivity for causing growth of the small intestine relative to the colon” and the “Small intestinal mass (SI-BW ratio), maximal response relative to [Gly2]GLP-2” value [2] was “maximal responses that were significant greater than [Gly2]GLP-2”.

For “[Gly2, Glu3, Leu10, Ser11, Ala16,24,28]hGLP-2(1-33)-NH2 [Compound 1857]”, the “Stability during acid hydrolysis (in words)” value [1] was “tendency of slightly higher stability”, the “Purity H2O2 0.5% 3 days” value [1] was 59% and the “Purity HCl 0.1M 12 days” value [1] was 86%. For the same substance, the “Purity NH4HCO3 0.1M 6 days” value [1] was 96%, the “SI-Colon Sensitivity Index (SI mass relative to colon mass) relative to [Gly2]GLP-2” value [2] was “increased maximal small intestinal sensitivity relative to [Gly2]GLP-2; also recorded: increased selectivity for causing growth of the small intestine relative to the colon” and the “Small intestinal mass (SI-BW ratio), maximal response relative to [Gly2]GLP-2” value [2] was “maximal responses that were significantly greater than [Gly2]GLP-2”.
